Consider 1 molecule from publication PMC10182654, “The pattern of histone H3 epigenetic posttranslational modifications is regulated by the VRK1 chromatin kinase” (Epigenetics & Chromatin, 2023).

The target of the assay is T1, GST-PCAF (aa 352–832) (human, UniProt Q92831 352-832).
T1 construct: PCAF (KAT2B), residues 352-832, fused to GST; Written GST-PCAF; source: bacterially expressed and purified
Nature of the assay: pull-down; purified VRK1-His and GST-PCAF (aa 352–832) incubated in 20 mM Tris–HCl pH 7.5, 5 mM MgCl2, 0.5 mM DTT, 150 mM KCl at 37 °C for 45 min; Glutathione Sepharose 4B overnight at 4 °C; SDS-PAGE, Coomassie staining; dose-dependent. The note with it: both partners purified.

T1 sequence (Q92831 352-832): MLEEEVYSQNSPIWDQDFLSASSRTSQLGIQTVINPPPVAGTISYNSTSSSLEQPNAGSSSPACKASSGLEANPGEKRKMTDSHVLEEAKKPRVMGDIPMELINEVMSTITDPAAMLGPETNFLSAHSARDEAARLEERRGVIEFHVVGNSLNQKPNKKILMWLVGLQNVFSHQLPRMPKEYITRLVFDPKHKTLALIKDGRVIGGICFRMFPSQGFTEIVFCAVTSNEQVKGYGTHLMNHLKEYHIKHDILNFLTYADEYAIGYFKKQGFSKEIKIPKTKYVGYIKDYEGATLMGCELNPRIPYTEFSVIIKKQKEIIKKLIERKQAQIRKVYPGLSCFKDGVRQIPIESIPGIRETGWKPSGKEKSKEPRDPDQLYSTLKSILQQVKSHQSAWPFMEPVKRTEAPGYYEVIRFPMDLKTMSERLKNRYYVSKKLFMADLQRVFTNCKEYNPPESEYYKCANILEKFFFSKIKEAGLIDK

B1: VRK1-His (enzyme, human, UniProt Q99986 1-396, looked up)
chain: MPRVKAAQAGRQSSAKRHLAEQFAVGEIITDMAKKEWKVGLPIGQGGFGCIYLADMNSSESVGSDAPCVVKVEPSDNGPLFTELKFYQRAAKPEQIQKWIRTRKLKYLGVPKYWGSGLHDKNGKSYRFMIMDRFGSDLQKIYEANAKRFSRKTVLQLSLRILDILEYIHEHEYVHGDIKASNLLLNYKNPDQVYLVDYGLAYRYCPEGVHKEYKEDPKRCHDGTIEFTSIDAHNGVAPSRRGDLEILGYCMIQWLTGHLPWEDNLKDPKYVRDSKIRYRENIASLMDKCFPEKNKPGEIAKYMETVKLLDYTEKPLYENLRDILLQGLKAIGSKDDGKLDLSVVENGGLKAKTITKKRKKEIEESKEPGVEDTEWSNTQTEEAIQTRSRTRKRVQK
notes: VRK1 with a His tag, bacterially expressed and purified; Printed both as His-VRK1 (results) and VRK1-His (methods); the end of the tag cannot be told; also called His-VRK1; source: bacterially expressed and purified
Consider B1, for which the binding result is on record as “binds”.
